Reference: patent US20230357354A1, “CD38-BINDING CD31 PEPTIDES AND USES THEREOF” (ENCEFA, priority 2020, published 2023)

The substances below were run against recombinant His-tagged CD38 (Homo sapiens, UniProt P28907) (assay: Pepscan-based ELISA of His-tagged CD38 on CD31 peptide arrays). Conditions: mimic type LOOP7 (single loop, mP2 CLIPS); sample with the highest signal.
Format: binding
Excerpt: Different sets of sCD31 peptides were synthesized according to the following designs. Note that actual order of peptides on mini-cards in some was randomized. • Set #1 • Mimic type: linear • Label: LIN15 • Linear peptides of 15 consecutive amino acid residues in length, derived from the target sequence of sCD31 with an offset of […]. • Set #2 • Mimic type: single loop (mP2 CLIPS) • Label: LOOP7 • Constrained peptides of 9 amino acid residues in length. On positions 2-8 are incorporated 7 consecutive amino acid residues derived from the target sequence of sCD31 with an offset of 1.3 residues. Cys residues were inserted on positions 1 and 9 and joined by mP2 CLIPS in order to create a loop mimic. Native Cys residues, if present, were replaced by Ser residues. • Set #3 • Mimic type: single loop, (mP2 CLIPS) • Label: LOOP15 • Constrained peptides of 17 amino acid residues in length. On positions 2-16 are incorporated 15 consecutive amino acid residues derived from the target sequence of sCD31 with an offset of […]. Cys residues were inserted on positions 1 and 17 and joined by mP2 CLIPS in order to create a loop mimic. Native Cys residues, if present, were replaced by Ser residues. • Set #4 • Mimic type: β-turn peptide mimics (mP2 CLIPS) • Label: BET • β-turn peptide mimics of 22 amino acid residues in length. On positions 2-21 are incorporated 20 consecutive amino acid residues derived from the target sequence of sCD31 with an offset of 1.3 residues. Residues on positions 11 and 12 are replaced by a Pro-Gly motif in order to induce the β-turn formation. Cys residues were inserted on positions 1 and 22 and joined by mP2 CLIPS in order to stabilize the mimic. Native Cys residues, if present, were replaced by Ser residues.
To reconstruct epitopes of sCD31, a library of peptide-based peptide mimics was synthesized using Fmoc-based solid-phase peptide synthesis. An amino functionalized polypropylene support was obtained by grafting with a hydrophilic polymer formulation, followed by reaction with t-butyloxycarbonyl-hexamethylenediamine (BocHMDA) using dicyclohexylcarbodiimide (DCC) with N-hydroxybenzotriazole (HOBt) and subsequent cleavage of the Boc-groups using trifluoroacetic acid (TFA).
Standard Fmoc-peptide synthesis was used to synthesize peptides on the amino-functionalized solid support by custom modified JANUS liquid handling stations (Perkin Elmer).
Synthesis of structural mimics was done using CLIPS technology. CLIPS technology allows to structure peptides into single loops, double loops, triple loops, sheet-like folds, helix-like folds, and combinations thereof. CLIPS templates are coupled to cysteine residues. The side-chains of multiple cysteines in the peptides are coupled to one or two CLIPS templates. For example, a 0.5 mM solution of the P2 CLIPS (2,6-bis(bromomethyl)pyridine) is dissolved in ammonium bicarbonate (20 mM, pH 7.8)/acetonitrile (1:3, v/v). This solution is added onto the peptide arrays. The CLIPS template binds to side-chains of two cysteines as present in the solid-phase bound peptides of the peptide-arrays (455 wells plate with 3-µL wells). The peptide arrays are gently shaken in the solution for 30 to 60 minutes while completely covered in solution.
Finally, the peptide arrays are washed extensively with excess of H2O and sonicated in disrupt-buffer containing 1% SDS / 0.1 % 2,2′-(ethylenedioxy)diethanethiol in PBS (pH 7.2) at 70° C. for 30 minutes, followed by sonication in H2O for another 45 minutes.
The binding of the sample (recombinant His-tagged CD38; 9 µg/mL and 20 µg/mL) to each of the synthesized peptides was tested in a pepscan-based ELISA. The peptide arrays were incubated with primary sample solution (overnight at 4° C.). […]

Value (binding intensity of His-tagged CD38), LOOP7 conformational peptide array	Substance
512 mAU	207 (CNITELFSC) [compound 207]
287 mAU	208 (CRISYDAQC) [compound 208]
570 mAU	209 (CSYDAQFEC) [compound 209]
628 mAU	210 (CYDAQFEVC) [compound 210]
429 mAU	211 (CDAQFEVIC) [compound 211]
402 mAU	212 (CNPTEDVEC) [compound 212]
407 mAU	213 (CPTEDVEYC) [compound 213]
556 mAU	214 (CDVEYQSVC) [compound 214]
378 mAU	215 (CDEVQISIC) [compound 215]
529 mAU	216 (CEVQISILC) [compound 216]
416 mAU	217 (CVQISILSC) [compound 217]
420 mAU	218 (CESGEDIVC) [compound 218]
573 mAU	219 (CSGEDIVLC) [compound 219]
442 mAU	220 (CGEDIVLQC) [compound 220]
389 mAU	221 (CDIVLQSAC) [compound 221]
385 mAU	222 (CKEQEGEYC) [compound 222]
619 mAU	223 (CQEGEYYSC) [compound 223]
650 mAU	224 (CEGEYYSTC) [compound 224]
552 mAU	225 (CGEYYSTAC) [compound 225]
477 mAU	226 (CYYSTAFNC) [compound 226]

Further lines, the substance ahead of its results:

Substance	Value (binding intensity of His-tagged CD38), LOOP7 conformational peptide array
173 (CNLTLQSFC) [compound 173]	370 mAU
174 (CTLQSFADC) [compound 174]	427 mAU
175 (CLQSFADVC) [compound 175]	561 mAU
176 (CQSFADVSC) [compound 176]	413 mAU
177 (CSFADVSTC) [compound 177]	390 mAU
178 (CMLFYKDDC) [compound 178]	542 mAU
179 (CLFYKDDVC) [compound 179]	604 mAU
180 (CYKDDVLFC) [compound 180]	585 mAU
181 (CKDDVLFYC) [compound 181]	579 mAU
182 (CDDVLFYNC) [compound 182]	702 mAU
183 (CVLFYNISC) [compound 183]	502 mAU
184 (CKSTESYFC) [compound 184]	339 mAU
185 (CTESYFIPC) [compound 185]	549 mAU
186 (CSYFIPEVC) [compound 186]	400 mAU
187 (CYFIPEVRC) [compound 187]	523 mAU
188 (CFIPEVRIC) [compound 188]	414 mAU
189 (CEVRIYDSC) [compound 189]	642 mAU

Substance	Value (binding intensity of His-tagged CD38), LOOP7 conformational peptide array
190 (CVRIYDSGC) [compound 190]	479 mAU
191 (CRIYDSGTC) [compound 191]	395 mAU
192 (CTAEYQVLC) [compound 192]	492 mAU
193 (CAEYQVLVC) [compound 193]	508 mAU
194 (CEYQVLVEC) [compound 194]	651 mAU
195 (CDQNFVILC) [compound 195]	628 mAU
196 (CQNFVILEC) [compound 196]	942 mAU
197 (CVILEFPVC) [compound 197]	527 mAU
198 (CILEFPVEC) [compound 198]	537 mAU
199 (CLAQEFPEC) [compound 199]	412 mAU
200 (CAQEFPEIC) [compound 200]	429 mAU
201 (CQEFPEIIC) [compound 201]	476 mAU
202 (CFPEIIIQC) [compound 202]	596 mAU
203 (CSSIVVNIC) [compound 203]	364 mAU
204 (CSIVVNITC) [compound 204]	387 mAU
205 (CIVVNITEC) [compound 205]	630 mAU
206 (CVNITELFC) [compound 206]	625 mAU

Same assay, conditions: mimic type LOOP15 (single loop, mP2 CLIPS); sample with the highest signal

Value (binding intensity of His-tagged CD38), LOOP15 conformational peptide array	Substance
431 mAU	227 (CHVKPQHQMLFYKDDVC) [compound 227]
411 mAU	228 (CVKPQHQMLFYKDDVLC) [compound 228]
467 mAU	229 (CKPQHQMLFYKDDVLFC) [compound 229]
600 mAU	230 (CQHQMLFYKDDVLFYNC) [compound 230]
564 mAU	231 (CHQMLFYKDDVLFYNIC) [compound 231]
646 mAU	232 (CQMLFYKDDVLFYNISC) [compound 232]
630 mAU	233 (CMLFYKDDVLFYNISSC) [compound 233]
497 mAU	234 (CLFYKDDVLFYNISSMC) [compound 234]
371 mAU	235 (CVLFYNISSMKSTESYC) [compound 235]
552 mAU	236 (CFYNISSMKSTESYFIC) [compound 236]
370 mAU	237 (CYNISSMKSTESYFIPC) [compound 237]
478 mAU	238 (CNISSMKSTESYFIPEC) [compound 238]
499 mAU	239 (CISSMKSTESYFIPEVC) [compound 239]
